According to patent publication US20090104196:

Target: AR co-purified in the TAP-LSD1/AR complex (UniProt P10275)
Sequence (P10275 whole entry, one chain of several): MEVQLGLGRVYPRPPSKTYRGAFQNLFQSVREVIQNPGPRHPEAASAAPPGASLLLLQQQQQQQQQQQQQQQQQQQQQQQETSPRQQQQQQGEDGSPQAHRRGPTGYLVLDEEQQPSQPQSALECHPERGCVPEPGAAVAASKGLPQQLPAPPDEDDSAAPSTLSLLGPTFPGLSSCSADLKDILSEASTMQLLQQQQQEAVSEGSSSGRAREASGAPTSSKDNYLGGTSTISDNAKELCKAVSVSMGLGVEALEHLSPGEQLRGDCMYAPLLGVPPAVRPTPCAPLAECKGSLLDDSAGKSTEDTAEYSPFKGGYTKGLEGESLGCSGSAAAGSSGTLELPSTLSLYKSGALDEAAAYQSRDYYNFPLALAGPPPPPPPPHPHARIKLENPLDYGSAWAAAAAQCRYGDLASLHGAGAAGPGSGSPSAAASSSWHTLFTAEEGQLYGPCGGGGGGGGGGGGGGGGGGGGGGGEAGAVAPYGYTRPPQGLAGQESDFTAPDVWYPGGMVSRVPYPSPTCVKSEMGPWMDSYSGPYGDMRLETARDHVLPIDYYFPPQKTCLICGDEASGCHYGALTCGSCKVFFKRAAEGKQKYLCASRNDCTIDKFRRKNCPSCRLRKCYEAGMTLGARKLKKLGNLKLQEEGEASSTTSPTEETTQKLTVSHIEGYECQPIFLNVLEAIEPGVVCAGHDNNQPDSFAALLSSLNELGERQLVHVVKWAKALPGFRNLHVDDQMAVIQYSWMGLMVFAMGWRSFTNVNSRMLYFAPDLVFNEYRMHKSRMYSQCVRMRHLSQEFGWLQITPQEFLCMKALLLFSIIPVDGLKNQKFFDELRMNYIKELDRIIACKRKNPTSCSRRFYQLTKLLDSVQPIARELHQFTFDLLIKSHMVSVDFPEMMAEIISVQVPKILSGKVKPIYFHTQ

Substance: TAP-LSD1 (LSD1 with N-terminal TAP tag), tandem affinity purified
- demethylation of dimethyl H3-K9 on HeLa nucleosomes in vitro (Western blot): The TAP-LSD1/AR complex demethylated dimethyl H3-K9 in vitro, whereas TAP-LSD1 or the TAP control failed to do so
